Measured values: patent publication US20050130175A1

Experiments:
[1] = molecular target: in vitro translated S38A wee1 (UniProt P47817); experiment: glutathione precipitation from Xenopus interphase egg extract with nuclei and MG132, wee1 Western blot
[2] = molecular target: in vitro translated wild-type wee1 (UniProt P47817); experiment: as above

Row | Substance | % of input wee1 precipitated [1] | % of input wee1 pulled down [2] | % of input wee1 precipitated [2]
1 | GST-Tome-1 (as used in the wee1 binding assay in Xenopus egg extracts) (from UniProt P08515 1-218) | 2.5 % of input | 25 % of input | –
2 | GST-VCA (GST fusion with the C terminus of the actin nucleating scaffolding protein N-WASP) (from UniProt P08515 1-218) | 8 % of input | – | 8 % of input
